From patent publication US20250163176A1, “MONOCLONAL ANTIBODY AGAINST TROP2 AND USE THEREOF” (INSTITUTE OF MEDICAL BIOTECHNOLOGY, CHINESE ACADEMY OF …, priority 2022, published 2025)

Columns and labels:
Assay in all cases: cytotoxic activity against tumor cells cultured in vitro (CCK-8)
Type in all cases: cell-based
[1] = tested on: ECA109; settings: ECA109, 48 h culture
Description: (§1) Tumor cells in the logarithmic growth phase after subculture were selected and prepared into a single-cell suspension and cell counting was performed. The cell concentration was adjusted to 3×10^3 cells/well, and the cells were inoculated into a 96-well plate with 80 μL/well. After 24 h of incubation, 20 μL of anti-Trop2-IgG, LDM, and Anti-Trop2-IgG-LDM diluted to different concentrations were added, with three parallel wells for each concentration. After 48 h of culture, 10 μL of CCK-8 reagent was added to each well in the dark, followed by shaking for 3 min and incubation in an incubator for 1 h. The 96-well plate was taken and shaken for 2 min, and the OD value at 450 nm was measured using a microplate reader. In addition to the drug-treated groups at different concentrations, three parallel wells each for the drug-free control group and the cell-free blank group were set up.

[2] = tested on: A431; settings: A431, 48 h culture
Description: as §1

[3] = tested on: A549; settings: A549, 48 h culture
Description: as §1

[4] = tested on: KYSE150; settings: KYSE150, 48 h culture
Description: as §1

B1: LDM: antitumor antibiotic lidamycin: protein LDP (SEQ ID NO:37) with bound active enediyne (AE) chromophore of Formula I (protein)
chain: APAFSVSPASGLSDGQSVSVSVSGAAAGETYYIAQCAPVGGQDACNPATATSFTTDASGAASFSFVVRKSYTGSTPEGTPVGSVDCATAACNLGAGNSGLDLGHVALTFG
modifications: bound enediyne chromophore
[1]
  IC50: 0.445 ± 0.034 nM
[2]
  IC50: 7 ± 2 pM
[3]
  IC50: 0.169 ± 0.017 nM
[4]
  IC50: 0.995 ± 0.008 nM
